# Square brackets hold non-standard residues; d marks the D form. Ends that are not written are not given here. Aib = CC(C)(N)C(=O)O
# T1: human glucose-dependent insulinotropic peptide receptor (human, UniProt P48546)
# T1 sequence: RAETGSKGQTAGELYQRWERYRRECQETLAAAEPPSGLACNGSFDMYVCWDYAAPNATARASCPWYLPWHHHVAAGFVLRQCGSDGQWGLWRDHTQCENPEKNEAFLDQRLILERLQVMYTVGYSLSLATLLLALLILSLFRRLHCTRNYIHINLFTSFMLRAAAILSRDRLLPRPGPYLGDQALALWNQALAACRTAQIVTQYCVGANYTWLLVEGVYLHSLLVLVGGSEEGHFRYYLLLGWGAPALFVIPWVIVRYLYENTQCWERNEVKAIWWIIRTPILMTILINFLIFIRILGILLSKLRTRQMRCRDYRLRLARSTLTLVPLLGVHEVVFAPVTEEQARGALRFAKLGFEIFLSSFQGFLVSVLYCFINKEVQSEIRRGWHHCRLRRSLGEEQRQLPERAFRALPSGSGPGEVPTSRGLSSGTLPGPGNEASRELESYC
# Target: human glucagon-like peptide-1 receptor (human, UniProt P43220)
# Assay: cell-based or functional assay
row,Binder,"Activity for human GLP-1R (EC50 nM), cAMP HTRF"
1,Y[Aib]EGTFTSDYSIYLEKIAAQEFVQWLIAGGPSSGAPPPS-NH2 (N-terminus assumed; SMILES CC[C@H](C)[C@H](NC(=O)[C@H](CCCCN)NC(=O)[C@H](CCC(=O)O)NC(=O)[C@H](CC(C)C)NC(=O)[C@H](Cc1ccc(O)cc1)NC(=O)[C@@H](NC(=O)[C@H](CO)NC(=O)[C@H](Cc1ccc(O)cc1)NC(=O)[C@H](CC(=O)O)NC(=O)[C@H](CO)NC(=O)[C@@H](NC(=O)[C@H](Cc1ccccc1)NC(=O)[C@@H](NC(=O)CNC(=O)[C@H](CCC(=O)O)NC(=O)C(C)(C)NC(=O)[C@@H](N)Cc1ccc(O)cc1)[C@@H](C)O)[C@@H](C)O)[C@@H](C)CC)C(=O)N[C@@H](C)C(=O)N[C@@H](C)C(=O)N[C@@H](CCC(N)=O)C(=O)N[C@@H](CCC(=O)O)C(=O)N[C@@H](Cc1ccccc1)C(=O)N[C@H](C(=O)N[C@@H](CCC(N)=O)C(=O)N[C@@H](Cc1c[nH]c2ccccc12)C(=O)N[C@@H](CC(C)C)C(=O)N[C@H](C(=O)N[C@@H](C)C(=O)NCC(=O)NCC(=O)N1CCC[C@H]1C(=O)N[C@@H](CO)C(=O)N[C@@H](CO)C(=O)NCC(=O)N[C@@H](C)C(=O)N1CCC[C@H]1C(=O)N1CCC[C@H]1C(=O)N1CCC[C@H]1C(=O)N[C@@H](CO)C(N)=O)[C@@H](C)CC)C(C)C) [Compound No. 79],0.012 nM
2,Y[Aib]EGTFTSDVSSYLEEEHQKEFIAWLVRGGPSSGAPPPSK-NH2 (N-terminus assumed; SMILES CC[C@H](C)[C@H](NC(=O)[C@H](Cc1ccccc1)NC(=O)[C@H](CCC(=O)O)NC(=O)[C@H](CCCCN)NC(=O)[C@H](CCC(N)=O)NC(=O)[C@H](Cc1c[nH]cn1)NC(=O)[C@H](CCC(=O)O)NC(=O)[C@H](CCC(=O)O)NC(=O)[C@H](CCC(=O)O)NC(=O)[C@H](CC(C)C)NC(=O)[C@H](Cc1ccc(O)cc1)NC(=O)[C@H](CO)NC(=O)[C@H](CO)NC(=O)[C@@H](NC(=O)[C@H](CC(=O)O)NC(=O)[C@H](CO)NC(=O)[C@@H](NC(=O)[C@H](Cc1ccccc1)NC(=O)[C@@H](NC(=O)CNC(=O)[C@H](CCC(=O)O)NC(=O)C(C)(C)NC(=O)[C@@H](N)Cc1ccc(O)cc1)[C@@H](C)O)[C@@H](C)O)C(C)C)C(=O)N[C@@H](C)C(=O)N[C@@H](Cc1c[nH]c2ccccc12)C(=O)N[C@@H](CC(C)C)C(=O)N[C@H](C(=O)N[C@@H](CCCNC(=N)N)C(=O)NCC(=O)NCC(=O)N1CCC[C@H]1C(=O)N[C@@H](CO)C(=O)N[C@@H](CO)C(=O)NCC(=O)N[C@@H](C)C(=O)N1CCC[C@H]1C(=O)N1CCC[C@H]1C(=O)N1CCC[C@H]1C(=O)N[C@@H](CO)C(=O)N[C@@H](CCCCN)C(N)=O)C(C)C) [Compound No. 3],0.578 nM
3,Y[Aib]EGTFTSDVSIYLEKEAAKEFVNWLLAGGPSSGAPPPSK-NH2 (N-terminus assumed; SMILES CC[C@H](C)[C@H](NC(=O)[C@H](CO)NC(=O)[C@@H](NC(=O)[C@H](CC(=O)O)NC(=O)[C@H](CO)NC(=O)[C@@H](NC(=O)[C@H](Cc1ccccc1)NC(=O)[C@@H](NC(=O)CNC(=O)[C@H](CCC(=O)O)NC(=O)C(C)(C)NC(=O)[C@@H](N)Cc1ccc(O)cc1)[C@@H](C)O)[C@@H](C)O)C(C)C)C(=O)N[C@@H](Cc1ccc(O)cc1)C(=O)N[C@@H](CC(C)C)C(=O)N[C@@H](CCC(=O)O)C(=O)N[C@@H](CCCCN)C(=O)N[C@@H](CCC(=O)O)C(=O)N[C@@H](C)C(=O)N[C@@H](C)C(=O)N[C@@H](CCCCN)C(=O)N[C@@H](CCC(=O)O)C(=O)N[C@@H](Cc1ccccc1)C(=O)N[C@H](C(=O)N[C@@H](CC(N)=O)C(=O)N[C@@H](Cc1c[nH]c2ccccc12)C(=O)N[C@@H](CC(C)C)C(=O)N[C@@H](CC(C)C)C(=O)N[C@@H](C)C(=O)NCC(=O)NCC(=O)N1CCC[C@H]1C(=O)N[C@@H](CO)C(=O)N[C@@H](CO)C(=O)NCC(=O)N[C@@H](C)C(=O)N1CCC[C@H]1C(=O)N1CCC[C@H]1C(=O)N1CCC[C@H]1C(=O)N[C@@H](CO)C(=O)N[C@@H](CCCCN)C(N)=O)C(C)C) [Compound No. 7],0.016 nM
4,Y[Aib]EGTFTSDYSIYLDKIAAQEFVQWLLAGGPSSGAPPPSK-NH2 (N-terminus assumed; SMILES CC[C@H](C)[C@H](NC(=O)[C@H](CCCCN)NC(=O)[C@H](CC(=O)O)NC(=O)[C@H](CC(C)C)NC(=O)[C@H](Cc1ccc(O)cc1)NC(=O)[C@@H](NC(=O)[C@H](CO)NC(=O)[C@H](Cc1ccc(O)cc1)NC(=O)[C@H](CC(=O)O)NC(=O)[C@H](CO)NC(=O)[C@@H](NC(=O)[C@H](Cc1ccccc1)NC(=O)[C@@H](NC(=O)CNC(=O)[C@H](CCC(=O)O)NC(=O)C(C)(C)NC(=O)[C@@H](N)Cc1ccc(O)cc1)[C@@H](C)O)[C@@H](C)O)[C@@H](C)CC)C(=O)N[C@@H](C)C(=O)N[C@@H](C)C(=O)N[C@@H](CCC(N)=O)C(=O)N[C@@H](CCC(=O)O)C(=O)N[C@@H](Cc1ccccc1)C(=O)N[C@H](C(=O)N[C@@H](CCC(N)=O)C(=O)N[C@@H](Cc1c[nH]c2ccccc12)C(=O)N[C@@H](CC(C)C)C(=O)N[C@@H](CC(C)C)C(=O)N[C@@H](C)C(=O)NCC(=O)NCC(=O)N1CCC[C@H]1C(=O)N[C@@H](CO)C(=O)N[C@@H](CO)C(=O)NCC(=O)N[C@@H](C)C(=O)N1CCC[C@H]1C(=O)N1CCC[C@H]1C(=O)N1CCC[C@H]1C(=O)N[C@@H](CO)C(=O)N[C@@H](CCCCN)C(N)=O)C(C)C) [Compound No. 21],0.043 nM
5,Y[Aib]EGTFTSDYSIYLEEEAAQEFVNWLLAGGPSSGAPPPS-NH2 (N-terminus assumed; SMILES CC[C@H](C)[C@H](NC(=O)[C@H](CO)NC(=O)[C@H](Cc1ccc(O)cc1)NC(=O)[C@H](CC(=O)O)NC(=O)[C@H](CO)NC(=O)[C@@H](NC(=O)[C@H](Cc1ccccc1)NC(=O)[C@@H](NC(=O)CNC(=O)[C@H](CCC(=O)O)NC(=O)C(C)(C)NC(=O)[C@@H](N)Cc1ccc(O)cc1)[C@@H](C)O)[C@@H](C)O)C(=O)N[C@@H](Cc1ccc(O)cc1)C(=O)N[C@@H](CC(C)C)C(=O)N[C@@H](CCC(=O)O)C(=O)N[C@@H](CCC(=O)O)C(=O)N[C@@H](CCC(=O)O)C(=O)N[C@@H](C)C(=O)N[C@@H](C)C(=O)N[C@@H](CCC(N)=O)C(=O)N[C@@H](CCC(=O)O)C(=O)N[C@@H](Cc1ccccc1)C(=O)N[C@H](C(=O)N[C@@H](CC(N)=O)C(=O)N[C@@H](Cc1c[nH]c2ccccc12)C(=O)N[C@@H](CC(C)C)C(=O)N[C@@H](CC(C)C)C(=O)N[C@@H](C)C(=O)NCC(=O)NCC(=O)N1CCC[C@H]1C(=O)N[C@@H](CO)C(=O)N[C@@H](CO)C(=O)NCC(=O)N[C@@H](C)C(=O)N1CCC[C@H]1C(=O)N1CCC[C@H]1C(=O)N1CCC[C@H]1C(=O)N[C@@H](CO)C(N)=O)C(C)C) [Compound No. 73],0.069 nM

# Target: T1, human glucose-dependent insulinotropic …
# Assay: cell-based or functional assay
row,Binder,"Activity for human GIPR (EC50 nM), cAMP HTRF"
1,Y[Aib]EGTFTSDVSIYLEKIAAQEFVNWLLAGGPSSGAPPPS-NH2 (N-terminus assumed; SMILES CC[C@H](C)[C@H](NC(=O)[C@H](CCCCN)NC(=O)[C@H](CCC(=O)O)NC(=O)[C@H](CC(C)C)NC(=O)[C@H](Cc1ccc(O)cc1)NC(=O)[C@@H](NC(=O)[C@H](CO)NC(=O)[C@@H](NC(=O)[C@H](CC(=O)O)NC(=O)[C@H](CO)NC(=O)[C@@H](NC(=O)[C@H](Cc1ccccc1)NC(=O)[C@@H](NC(=O)CNC(=O)[C@H](CCC(=O)O)NC(=O)C(C)(C)NC(=O)[C@@H](N)Cc1ccc(O)cc1)[C@@H](C)O)[C@@H](C)O)C(C)C)[C@@H](C)CC)C(=O)N[C@@H](C)C(=O)N[C@@H](C)C(=O)N[C@@H](CCC(N)=O)C(=O)N[C@@H](CCC(=O)O)C(=O)N[C@@H](Cc1ccccc1)C(=O)N[C@H](C(=O)N[C@@H](CC(N)=O)C(=O)N[C@@H](Cc1c[nH]c2ccccc12)C(=O)N[C@@H](CC(C)C)C(=O)N[C@@H](CC(C)C)C(=O)N[C@@H](C)C(=O)NCC(=O)NCC(=O)N1CCC[C@H]1C(=O)N[C@@H](CO)C(=O)N[C@@H](CO)C(=O)NCC(=O)N[C@@H](C)C(=O)N1CCC[C@H]1C(=O)N1CCC[C@H]1C(=O)N1CCC[C@H]1C(=O)N[C@@H](CO)C(N)=O)C(C)C) [Compound No. 68],0.047 nM
2,Y[Aib]EGTFTSDVSSYLEEEHQKEFIAWLVRGGPSSGAPPPSK-NH2 (N-terminus assumed; SMILES CC[C@H](C)[C@H](NC(=O)[C@H](Cc1ccccc1)NC(=O)[C@H](CCC(=O)O)NC(=O)[C@H](CCCCN)NC(=O)[C@H](CCC(N)=O)NC(=O)[C@H](Cc1c[nH]cn1)NC(=O)[C@H](CCC(=O)O)NC(=O)[C@H](CCC(=O)O)NC(=O)[C@H](CCC(=O)O)NC(=O)[C@H](CC(C)C)NC(=O)[C@H](Cc1ccc(O)cc1)NC(=O)[C@H](CO)NC(=O)[C@H](CO)NC(=O)[C@@H](NC(=O)[C@H](CC(=O)O)NC(=O)[C@H](CO)NC(=O)[C@@H](NC(=O)[C@H](Cc1ccccc1)NC(=O)[C@@H](NC(=O)CNC(=O)[C@H](CCC(=O)O)NC(=O)C(C)(C)NC(=O)[C@@H](N)Cc1ccc(O)cc1)[C@@H](C)O)[C@@H](C)O)C(C)C)C(=O)N[C@@H](C)C(=O)N[C@@H](Cc1c[nH]c2ccccc12)C(=O)N[C@@H](CC(C)C)C(=O)N[C@H](C(=O)N[C@@H](CCCNC(=N)N)C(=O)NCC(=O)NCC(=O)N1CCC[C@H]1C(=O)N[C@@H](CO)C(=O)N[C@@H](CO)C(=O)NCC(=O)N[C@@H](C)C(=O)N1CCC[C@H]1C(=O)N1CCC[C@H]1C(=O)N1CCC[C@H]1C(=O)N[C@@H](CO)C(=O)N[C@@H](CCCCN)C(N)=O)C(C)C) [Compound No. 3],0.91 nM
3,Y[Aib]EGTFTSDYSIYLEKEAAKEFIAWLLAGGPSSGAPPPS-NH2 (N-terminus assumed; SMILES CC[C@H](C)[C@H](NC(=O)[C@H](Cc1ccccc1)NC(=O)[C@H](CCC(=O)O)NC(=O)[C@H](CCCCN)NC(=O)[C@H](C)NC(=O)[C@H](C)NC(=O)[C@H](CCC(=O)O)NC(=O)[C@H](CCCCN)NC(=O)[C@H](CCC(=O)O)NC(=O)[C@H](CC(C)C)NC(=O)[C@H](Cc1ccc(O)cc1)NC(=O)[C@@H](NC(=O)[C@H](CO)NC(=O)[C@H](Cc1ccc(O)cc1)NC(=O)[C@H](CC(=O)O)NC(=O)[C@H](CO)NC(=O)[C@@H](NC(=O)[C@H](Cc1ccccc1)NC(=O)[C@@H](NC(=O)CNC(=O)[C@H](CCC(=O)O)NC(=O)C(C)(C)NC(=O)[C@@H](N)Cc1ccc(O)cc1)[C@@H](C)O)[C@@H](C)O)[C@@H](C)CC)C(=O)N[C@@H](C)C(=O)N[C@@H](Cc1c[nH]c2ccccc12)C(=O)N[C@@H](CC(C)C)C(=O)N[C@@H](CC(C)C)C(=O)N[C@@H](C)C(=O)NCC(=O)NCC(=O)N1CCC[C@H]1C(=O)N[C@@H](CO)C(=O)N[C@@H](CO)C(=O)NCC(=O)N[C@@H](C)C(=O)N1CCC[C@H]1C(=O)N1CCC[C@H]1C(=O)N1CCC[C@H]1C(=O)N[C@@H](CO)C(N)=O) [Compound No. 67],0.017 nM
